Data taken from PMC11429998 (bioRxiv, 2024).

What was measured:
[1] = target: PseCAST Cas7 (Pseudoalteromonas); assay: cryo-EM structure
cryo-EM structure = target: the molecule itself; assay: cryo-EM structure

Molecule | stoichiometry N [1] | stoichiometry N (cryo-EM structure)
PseCAST Cas7 (natural protein) | 6 | –
PseCAST TniQ (natural protein) MAFLFSPKIGPFFDESLESYLLRVVSENFFDSYEGLSLAIREELHELDFEAHGAFPIDLKRLNVYHAKHNSHFRMRALGLLETLLDLPRYELQKLALLKSDIKFNSSAALYKGGVDIPQRFICYHTEEAVDSIPVCPQCLAEEAYIKQSWHIKWVNACAKHQCTLVHKCPECCAPINYIENESITHCSCGFELSCGSTSPVNTLSIDHLNKLLNKSELDDNNPLFKNTTLTERFAALLWYQERYSKEETFCLDDVVNYFNGWPVVFYKELDELSKNAAMKLIDLFNKTEFKFIFGNAILSCPNTQKQREPHFIYSTLLDYLATLVESNPKTKKPNVADLLVSVLEAATLLSISIEQVYRLYQDGILQTAFRHKMNQRINPYKGVFFLRHVIEYKTSFGNDKARMYLSAW | – | 2
